Experimental data: the DeepSol protein solubility set

Test: soluble on expression in E. coli; label from the status in PepcDB or PDB records
In the case of “MGSDKIHHHHHHMPRLIVLNDNTPSRGLINDWGWSILIEGRERFLFDADTNPLVLAHNSKVLNVNLRNLDFAVLSHWHYDHYGGFEYIAELNPGIKFYAPPQGLALAMRWGFQPIAINFGGKIEEEVYTSGVIDGIEQAIGLETSSGLVVIVGCSHPGVDRMVEEVLKVSGYEKAYLVIGGFHSPPIHRLRNLARLSELIAPAHCSGDVAKAFIKRNYKEKYVDVKTGTILEI”, the “soluble on expression in E. coli” value is reported as “not soluble”. With “MGSDKIHHHHHHMPRQWNTDALSAGHLSCSSFFPFALTNKIIGRIKKKNNRMKGNNQLCTLLKLCLLSMLAFGTAKAQIQIVGAPSMKALDDSPNRLQVFMLHTLNPASVILRFAGAGTGKLYRYTTKAIEAEEVTTATYSDGMWTLTAPQLNCGYFVSGDGRLPQYYWISNYADYALFVSAVTGKPSETSPCISMDLAVDAAIRPIPYFQPNGIPRRLDRHVQISYPDMEWDAEARLFRPSTKEVEVEASDDERTLVVSASLADAVYTIHGDRFTKELSLPFTAVATDEILTPKVEVYAFVDKVDGGSAIGDNTPEEGDASLVSAPFTVMLAAYGNEPSAANFVWRIYRTEEGAENSVLVYNGTSTEFTFRQAGIYSILLQATNRTGTCTDEVLLENYFKVAESSLIVPNAFSPYGSPGVNDVFRVKHSSLVHFDGRIFDSWGKQIFRWTNPDEGWDGKYRGKMMPTGVYYYVIEAEGADGIKYKRKGDINILRPAYEIPLGGNLPR” the “soluble on expression in E. coli” value was “not soluble”. With “MGSDKIHHHHHHMPSFKTYPLESIGYDEALRKQFRLVDEITRHFKGSEFLSRGDLGVVPGLNRPRYTKRVEEILAAYFHAEAAMLVRGAGTAAIRMALHSYLTAGQTLLVHDAPIYPTTQTSIEMMSLRTIRADFNDLNHQQLPESPDGILVQYTRQKPDDSYDMAKVLAFFKQRYPSVPIVTDDNYAVMKVHKIGVELGASLSCFSTFKLLGPEGIGCIVGDKSAIQKLRSANYSGGSQVQGHEAIDVLRGLTYAPVALAAQANVVTELVERLNGNEIPGISEAYVANAQSKVLLVEFNQPIAEKVLKYTNDLGAAPNPVGAESKYEIAPMFYRVSGTFKKFDPNLLKTTIRINPYRCGADTIMRILAESVEKVMA” the “soluble on expression in E. coli” value was “not soluble”. With “MGSDKIHHHHHHMPSIENMIAWMQARKGKVTYSMTSRMGPNSYDCSSSIFFAMIAGGFLSAGSMGNTETLFGMSGTKLKEISRGEVQRGDVFISGTPGGSAGSDGHTGIFLSNGSFIHCSYTHNGIAVDTNDAYMSTRLPHHFYRIVGSGSGNTDNKPQMVTLNVDGQFGNATAKRLQEYFDTAGKDGVISHQYKQTFNQNIYAAQFDSSLTGSNVVKALQRFLGIGQDGLFGQGTIKALQKHLGTTQDGTISPVSDSVRELQRRLNANKL” the “soluble on expression in E. coli” value was “not soluble”. In the case of “MGSDKIHHHHHHMPSLREQQHPLIRQLADCIEAAWHQHLDLSPYHLPDELGYVEGRLEGEKLTIENRCYQTPQFRKMHLELANIGNMLDILHCVMFPRPQYNLPMFGCDLVGGRGQISAAIADLSPIQLERTLPESYTTALAQLPVLNFSQPRELPEWGNIFSDFCIFVRPGSPEEEAMFLSRVREFLDIHCMQAIASHPVSVEQVTQNLAGQHNYCTKQQQNDKTRRVLEKAFGPVWAENYMTTVLFDLPT”, the “soluble on expression in E. coli” value is reported as “not soluble”. In the case of “MGSDKIHHHHHHMPTIHFVDGEKGGVGKSLFARTMIQYCLDKRIPFVPVETDRSNPDVAGVYKEICKYAVFSENERQANKADRIFEWAIERPVIVNLAAQSHRAVQGWIESNQLLELGSSQGVMFCKWFISTGGYDSINLFTQSVNTYGEKIPHILVRNLGLCDDWEHLESDSNFQNIVNKYQIKVIDFPKLAYRERNIIDQNRLTFAEAREYKEFGIIGKQRVVNFLKLAYGAFEKVGIWYEKVE”, the “soluble on expression in E. coli” value is reported as “not soluble”. In the case of “MGSDKIHHHHHHMPWLRFCDRDRSVHMLVAMLDLTREKAEQVMRRGPWLASMTEPFRTELLRHAHLQKFAPDQVVYRHGDAVGGMYGLVAGSLTINSAPPDAASRLIHLGMPGAWTGEGPFLTGQPRRVELRALGGAWMMHVPLDALEQMMARDPGVSRAIAMNTVFTVDVLLRIIHDLQKRAVGRRIASVLQRASWVGDMPIPLSQTDLGIMANASRQQVNTAMQRFARAGWVSYTYRSVTVSNSQALRRFSEGDGSEW”, the “soluble on expression in E. coli” value is reported as “not soluble”. With “MGSDKIHHHHHHMQALQTFNFEELPVRTLEVDGEPYFIGKDVADILGYANGRDALSKHVDEDDKKVLTSRNTTLENLPNRGLTAVNESGLYSLIFSSKLESAKRFKRWVTSDVLPAIRKYGIYATDNVIEQTLKDPDYIITVLTEYKKEKEQNLLLQQEIGELKPKADYVDEILKSTGTLATTQIAADYGISAQKLNKLLHEARLQRKVNKQWVLYSEHMGKSYTDSDTITIVRSDGREDTVLQTRWTQKGRLKIHEIMTEFGYEANLGGA” the “soluble on expression in E. coli” value was “not soluble”. For “MGSDKIHHHHHHMQDKNFDKLAQKFAKNIYGTPKGEIRAAVLWRDLAPALAQFGDKKLRILDAGGGFGYFSQKLARLGHEVVLCDISAEMLAQAKEQIDASDTPLAIRLVHAPIQALSITEHGMFDLILCHAVVEWLADAKTTMEGLLTMLKPNGLFSLMFYNKEAMRFHALVSGNFDYVAADLKVKKKVRLTPTHPLYIHEVKLWFAQWQMALLKESGVRVIHDYLKKQQAADFDYQKLLSMELEYSQREPYISLGRYVHFLGQSTATHSE”, the “soluble on expression in E. coli” value was “not soluble”. In the case of “MGSDKIHHHHHHMQEVATEARIGPNSIIQTVAAARAQYGEEAVADWLRRTGRGHLLEAMPDHMLPESEFGDLIADLRFWLGVSAAADVLAQSGDLTAQYVATHRVPVPIRWLLPRLPVGLALRIFLPAIARHAWTFAGSGRFGYTLQPAWRLTLADSVEARGVRATEPVCAYYRAAFEGLLRRVVCDRLRVHEVACRAMGTGRCEFAVELSR”, the “soluble on expression in E. coli” value is reported as “not soluble”. With “MGSDKIHHHHHHMQFSPEQDNALKAVSAWLKEGRSPLFRLFGYAGTGKTTLARYFAETVDGSVQFTAFTGKAAQVLRSKGASNACTIHSLIYCPRGEEEVSDEVTGKKSIAPTFALNRRSAAAQAKLIIVDECSMVDEQLARDLMSFRTPILVLGDPGQLPPISGGGFFSNGVPDFLLSEIHRQARDNPIVRLAMDVREGRDIPYGNYGAARVVTRKEVHQQLVLDADQLLVGINRTRYLYNKRLRVLKGFTAAYPQAGDKLVCLRNDPAKGLLNGSLWKVMTSQKETVKPGVNLLVKPEESERGVVKIKLLKALFENPDSDISWQLKKRYDDFDYGYALTVHKAQGSQWNNVVLFDESFAFRDMSARWLYTGITRAAERLTIVR” the “soluble on expression in E. coli” value was “not soluble”. In the case of “MGSDKIHHHHHHMQGKKFISPGAWFSMNYPSDWNEFEDGEGSFLFYNPDVWTGNFRISAFKGNASYGKDAIRQELKENDSASLVKIGTWDCAYSKEMFQEEGTYYTSHLWITGTGNIAFECSFTVPKGGSAKEAEEVIATLEARKEGEKYPAELIPVRLSEIYQINEGYEWVVSTVKQELKKDFQGVEEDLEKIQQVIDSGKISPKKKDEWLAIGITVCAILTNEVEGMEWKTLIDGNREVPVLEYQGRTIDPMKIAWSKVKAGQPCNIAEAYQSAIDHH”, the “soluble on expression in E. coli” value is reported as “not soluble”. In the case of “MGSDKIHHHHHHMQGSRFAFGPFVLDPGAGTLLRNDDPVAVGYRGLKLLAALVGRPGEILEKAELMDAAWPGTAVEEGNLTVQIAQLRKLLGPPADGGEWISTVPRVGYRFTGAIEQLDRAKRKPLPLPDKPSIAVLPFVNLSNDPEQEAFADGLTEDLITDLSRAPGLFVIARNSTFAYKGKAMDVRAIAEELGVRYLLEGSARRAAGRVRINAQLVDAKSGEHLWAERFDRGLDDIFAVQDEATAKIVEALLGRLRAPPPRNRPTNLEAYDLCVRARKLIEESPQTAREAHLLLTRAVSLDPEYAEAHRWLAMNHWMGWVHWGEPVDPNRRIALELARKAVAIDPNDAGCRWVLGNLLAYEHSFEESEAEFAKAFELDPNEADAWATLSDIAVLAGRVEEGLEHIRKAFRLNPYPASWYYLTLGEAQYAARDYEAAVETLRREETYRTSSRRFLAASLAQLGRLDEARAEVEMFLIGNPHFTTSYWVWTEPFRDDAMRDHFVDGFRKAGLPD”, the “soluble on expression in E. coli” value is reported as “not soluble”. In the case of “MGSDKIHHHHHHMQILFFMKIIRDPIHGYIEVEDFVLQIISTEIFQRLRHITQTGLAYLVYPGMRHTRFEHSLGVMHLAKELTRYIKINSEQYTDLDFINEEYLKLVGLSGLLHDIGHLPFSHTFENALSLAKEVYGIDVEYYGKKTHVIFGNRVIDYYLGNYLDKLSKNYDVVNFVQRVISSTPRTKEESLASLIISSPLDADRGDYLLRDSYFAGVGYGNFDIERIKRSLIYVNGKLAVLKKAIPVVEQFLLARMYMYETIYFHSVVGLYNAVLSHAVVKLIQKNLIPNVAPENYLKLNDVVIMSKLNEAGREFFDAIVYRKGFKRYKKDLTGNCYETLEKKRKEINEIMRENNGLILYHDFYDVPYSEDEIFVYDDDELKPLSTESKIVSSLTIIKKGIVGYHESAEDKMKKIYEILQECPL”, the “soluble on expression in E. coli” value is reported as “not soluble”. With “MGSDKIHHHHHHMQINRLTLTNFRGLTNSVLDFAPGFNLVVGVNGVGKTAVLEALRILLAKALPSFAEVRGFPGIGLTKDDITIDRKQAAIEVSFTHQAHTFSLLLSDQLEVVRDAVDEQKGLKDIRDIDELASLRHGQRPERGDPRLEGTLRGQTSERPRASGQLSPTPDRALKKSKPQPIVLYFSVRRAVPSPGTPKTKAGTPYQGIFEIERGLELGKIIEWWNSKATVAREAPDSRSAKQLTTTCNALERLLPHLSDWKVEDGNFTVCKVADVGVLNDESGEFEVKQETRRLPVQFLSDGERSLIAIGIDIAYRLASLNEDSETPLDDGEGIVLIDELDLHLHPQWQRTVVELLRTAFPKLQFICTTHSLFLIQSQRMGNLIQLDRIGDEEESAEQYHNQSIEDIAEEVQGIDLPQRSKRHVELMLAASEYYRALKKAEDDPNIPIEELKEKYEALSLRYSADPLVAAALDFRWETFVFKRNHATRR” the “soluble on expression in E. coli” value was “not soluble”. In the case of “MGSDKIHHHHHHMQLDKYTAKKIVKRAMKIIHHSVNVMDHDGVIIASGNSTRLNQRHTGAVLALRENRVVEIDQALAQKWNFEAQPGINLPIHYLGKNIGVVGISGEPTQVKQYAELVKMTAELIVEQQALLEQESWHRRYKEEFILQLLHCNLNWKEMEQQAKFFSFDLNKSRVVVLIKLLNPALDNLQNLINYLEQSEFAQDVAILSLDQVVVLKTWQNSTVLSAQMKTLLPADYSKQDYKIAVGACLNLPLFEQLPLSFQSAQSTLSYGLKHHPRKGIYVFDEHRLPVLLAGLSHSWQGNELIKPLSPLFSEENAILYKTLQQYFLSNCDLYLTAEKLFVHPNTLRYRLNKIEQITGLFFNKIDDKLTLYLGTLLEH”, the “soluble on expression in E. coli” value is reported as “not soluble”. With “MGSDKIHHHHHHMQLKNVQRSYALTLGEKTGSTINVGVFAQKRAKKCTQAPLSIILELSRNKERIGAACTMNFTMDLPGLKGVKVTKMEEREDFIALHVEMPRTPHRCPSCGERTERIHDYRIQKVQHLKLFERWVYLFYRKRRYACRCGKRFAEKACFVERYQRQTVEWNQAFRLRLIQGKNFTDTANQFQTSVTTAMRRFDQLAAPLVKKVDHLPPRIAIDDYKGDTNAGKYQVIIADADTRKPLDILPDRKADTLKRYLQEKGHHVKTVVMDLSYTFKSAVQKALGHPLIIGDPFHFCRYIYWALEGVRRRVQKAFHPYHRKRCKRIKHLFQKEREGLDDKQKKKVERYLELSPDLREAYELKEHFRQWYQEAKMQGREGRMSEVKQGLYAFYRRVEASPLKEFHRAIQTLKNWQTEILNSFAFGLNNGFIEGLNNQTKVIKRNAFGFRRYDRLRNRILLHHQFKHQTFGVG” the “soluble on expression in E. coli” value was “not soluble”.
